From publication PMC2289352

Molecular target: S1 triple mutant containing all three substitutions L108D, L112D, and V117D
Assay: SEC

## S1 triple mutant containing all three substitutions L108D, L112D, and V117D (domain or fragment)
  protein eluting in the void volume of Sephacryl S200 (self-association): > 50%
